Measurements reported in patent publication US20140161821A1, “TREATMENT WITH ANTI-PCSK9 ANTIBODIES” (PFIZER INC., priority 2011, published 2014).
Like-named read-outs stand apart in the source and are kept apart here.

Experiments:
[1] = target: T1, PCSK9 (Mus musculus, UniProt Q80W65); test: Serum cholesterol in C57BL/6 mice after single IP dose; format: in vivo; details: 10 mg/kg single IP
T1 construct: endogenous in cells; host or cells: live C57BL/6 mice (in vivo, serum PCSK9)
Description: Serum cholesterol levels recovered to 69 mg/dL by day 7 post-treatment.

[2] = Example 2 clinical study: safety and adverse events; format: in vivo; details: single IV 0.3-18 mg/kg
Description: The study entailed a randomized, placebo-controlled, ascending, single dose study of L1L3. The subjects, investigator, and site personnel (except site personnel responsible for drug preparation) were blinded to treatment assignments, as was the CRO designee; while the Sponsor clinical research team was unblinded. The study was conducted in 6 planned cohorts of 8 subjects per cohort in an effort to seek a maximum tolerated dose or MTD (total of approximately 48 subjects). […] Doses were administered following an overnight fast as an intravenous infusion over 60 minutes. […] Infusions will be administered as a single infusion over 60 minutes.
The dosing schedule was adjusted to allow administration of lower, intermediate, or higher doses to obtain a maximum tolerated dose and no effect dose. Each subject enrolled into the study, regardless of cohort assignment, received only one dose of study drug during their study participation.

[3] = target: T2, PCSK9 (Homo sapiens, UniProt Q8NBP7); test: Example 5 clinical study, four weekly IV doses: fasting LDL-C; format: in vivo, human Japanese subjects; details: weekly IV 0.25, 0.5, 1.0, 1.5 mg/kg on Days 1, 8, 15, 22; baseline about 155 mg/dL
T2 construct: PCSK9 antagonist antibody that antagonizes circulating PCSK9; endogenous in cells; host or cells: human subjects in clinical trials (in vivo, circulating PCSK9)
T2 sequence (Q8NBP7 153-692): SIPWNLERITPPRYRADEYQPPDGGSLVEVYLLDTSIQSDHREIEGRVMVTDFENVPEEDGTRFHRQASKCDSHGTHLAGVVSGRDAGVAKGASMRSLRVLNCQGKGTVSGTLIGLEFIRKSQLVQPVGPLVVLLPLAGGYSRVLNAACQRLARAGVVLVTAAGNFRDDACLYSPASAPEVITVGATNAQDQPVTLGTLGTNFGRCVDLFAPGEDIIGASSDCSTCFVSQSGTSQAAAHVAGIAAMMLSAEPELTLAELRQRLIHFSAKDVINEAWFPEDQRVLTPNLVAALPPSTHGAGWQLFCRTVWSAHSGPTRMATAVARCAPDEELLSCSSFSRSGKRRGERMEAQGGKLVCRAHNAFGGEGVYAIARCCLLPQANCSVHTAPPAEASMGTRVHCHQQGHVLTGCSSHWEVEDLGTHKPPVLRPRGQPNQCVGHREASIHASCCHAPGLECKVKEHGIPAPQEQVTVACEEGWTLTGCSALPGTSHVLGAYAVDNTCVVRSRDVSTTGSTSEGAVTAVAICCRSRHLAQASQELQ
T2 sequence (Q8NBP7 31-152 partner limits assumed): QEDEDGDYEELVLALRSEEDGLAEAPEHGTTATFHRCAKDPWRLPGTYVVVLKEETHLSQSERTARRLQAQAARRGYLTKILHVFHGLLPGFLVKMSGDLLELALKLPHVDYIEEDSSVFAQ
Excerpt: This study was a randomized, multi-center, double-blind, placebo control, parallel designed trial with a 28 day screening period, 4 week treatment period and 8 week follow-up period (FIG. 11). […] For each subject, the study consisted of 3 periods: screening, treatment, and follow-up. […] The follow-up period will lasted approximately 8 weeks, from approximately Day 29 to the last visit (Day 78).

[4] = Description: Subjects were seen periodically in the clinic for safety assessments and collection of blood for safety labs, lipid profiles, PK, PD, and immunogenicity samples. Telephone contacts were made prior to each visit to remind them of the 10-hour fasting requirements, during screening and on Day 3 to assess adverse events and document the contact in the subject's source document. […] Infusions were administered as a single infusion over approximately 60 minutes.
[5] = PK study, single bolus i.v. injection in cynomolgus monkeys, total antibody concentration; format: in vivo

T1 sequence (Q80W65 156-694): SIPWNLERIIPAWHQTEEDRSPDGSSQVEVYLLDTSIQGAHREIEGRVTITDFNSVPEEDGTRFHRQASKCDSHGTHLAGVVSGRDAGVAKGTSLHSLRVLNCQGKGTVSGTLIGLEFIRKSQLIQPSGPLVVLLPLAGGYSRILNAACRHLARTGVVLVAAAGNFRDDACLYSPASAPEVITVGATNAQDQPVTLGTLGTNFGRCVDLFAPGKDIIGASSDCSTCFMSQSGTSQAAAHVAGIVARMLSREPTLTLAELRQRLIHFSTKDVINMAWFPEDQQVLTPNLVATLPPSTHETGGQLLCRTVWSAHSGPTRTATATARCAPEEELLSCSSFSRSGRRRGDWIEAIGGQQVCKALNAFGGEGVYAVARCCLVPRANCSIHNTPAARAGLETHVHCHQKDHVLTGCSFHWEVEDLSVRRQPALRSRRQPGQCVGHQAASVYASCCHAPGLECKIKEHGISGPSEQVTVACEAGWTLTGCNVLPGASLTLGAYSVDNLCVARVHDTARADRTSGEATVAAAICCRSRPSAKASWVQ
T1 sequence (Q80W65 35-155 partner limits assumed): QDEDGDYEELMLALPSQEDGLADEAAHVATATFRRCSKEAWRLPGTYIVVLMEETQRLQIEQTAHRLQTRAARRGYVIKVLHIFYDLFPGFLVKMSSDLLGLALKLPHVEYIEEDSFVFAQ

B1: L1L3: humanized (<5% murine residues) monoclonal PCSK9 antagonist antibody that binds to secreted PCSK9; VH SEQ ID NO: 11, VL SEQ ID NO: 12 (antibody, V domains shown)
VH: QVQLVQSGAEVKKPGASVKVSCKASGYTFTSYYMHWVRQAPGQGLEWMGEISPFGGRTNYNEKFKSRVTMTRDTSTSTVYMELSSLRSEDTAVYYCARERPLYASDLWGQGTTVTVSS
VL: DIQMTQSPSSLSASVGDRVTITCRASQGISSALAWYQQKPGKAPKLLIYSASYRYTGVPSRFSGSGSGTDFTFTISSLQPEDIATYYCQQRYSLWRTFGQGTKLEIK
modifications: heavy chain variable region; light chain variable region
[1]; 48 hours post treatment
  Serum cholesterol reduction vs saline treated controls: 37%
[1]; 4 days post-treatment
  Serum cholesterol levels: 44 mg/dL
  Serum cholesterol reduction vs control animals: 47%
[1]; day 7 post-treatment
  Serum cholesterol levels (recovered): 69 mg/dL
[1]; normal diet, 48 hours post treatment
  Serum cholesterol levels: 47 mg/dL
[2]
  Discontinuation due to treatment emergent adverse events (TEAEs): no subjects discontinued
  Intensity of TEAEs: majority of TEAEs were mild in intensity; none were severe
  Serious adverse events: no serious adverse events occurred
[3]
  Fasting LDL-C: sustained, substantial and durable dose-dependent fasting LDL-C lowering
[4]; 0.25 mg/kg, after 1st dose
  Cmax: 10900 ± 13000 ng/mL
  Ctrough: 109 ± 406 ng/mL
[4]; 3 mg/kg, after 3rd dose
  Ctrough: 3040 ± 4420 ng/mL
[4]; 6 mg/kg, after 3rd dose
  Ctrough: 15600 ± 15300 ng/mL
[5]; single i.v. 0.1 mg/kg
  Estimated β-phase half-life: 16.1 h
[5]; single i.v. 1.0 mg/kg
  Estimated β-phase half-life: 45.8 h
[5]; single i.v. 3.0 mg/kg
  Estimated β-phase half-life: 55.9 h
[5]; single i.v. 10.0 mg/kg
  Estimated β-phase half-life: 83.8 h
[5]; single i.v. 100.0 mg/kg
  Estimated β-phase half-life: 126 h
